Data as given in paper PMC11808261.

Substrate: N[C@@H](CC(=O)O)C(=O)O
Assay: purified protein
Settings: 37 °C, 5 min, PBS pH 7.0 (pH of the activity assay), pyruvoyl-dependent
[1] = variant N3, I126* = C-terminal deletion from residue 126
[2] = variant Y1, I126* = C-terminal deletion from residue 126

B1: BsADC (L-aspartate-alpha-decarboxylase, panD-wt) (Bacillus subtilis subsp. subtilis str. 168) (protein)
chain 1: MYRTMMSGKLHRATVTEANLNYVG
chain 2: SITIDEDLIDAVGMLPNEKVQIVNNNNGARLETYIIPGKRGSGVICLNGAAARLVQEGDKVIIISYKMMSDQEAASHEPKVAVLNDQNKIEQMLGNEPARTIL
Km: 3.69 ± 0.33 mM
kcat: 4.25 s⁻¹
kcat/Km: 1150 M⁻¹ s⁻¹

B2: BsADC (L-aspartate-alpha-decarboxylase, panD-wt) (Bacillus subtilis subsp. subtilis str. 168; A99E/DEL126-127/I88M/K113R/K63N/S7N) (protein)
chain 1: MYRTMMNGKLHRATVTEANLNYVG
chain 2: SITIDEDLIDAVGMLPNEKVQIVNNNNGARLETYIIPGNRGSGVICLNGAAARLVQEGDKVIIMSYKMMSDQEAESHEPKVAVLNDQNRIEQMLGNEPART
Km [1]: 3.22 ± 0.15 mM
kcat [1]: 8.29 s⁻¹
kcat/Km [1]: 2570 M⁻¹ s⁻¹

B3: BsADC (L-aspartate-alpha-decarboxylase, panD-wt) (Bacillus subtilis subsp. subtilis str. 168; A99E/DEL126-127/I88M/K113R/K63N/S7Y) (protein)
chain 1: MYRTMMYGKLHRATVTEANLNYVG
chain 2: SITIDEDLIDAVGMLPNEKVQIVNNNNGARLETYIIPGNRGSGVICLNGAAARLVQEGDKVIIMSYKMMSDQEAESHEPKVAVLNDQNRIEQMLGNEPART
Km [2]: 3.82 ± 0.29 mM
kcat [2]: 7.26 s⁻¹
kcat/Km [2]: 1900 M⁻¹ s⁻¹
